Measurements reported in US20230068663A1 (University of Texas, published 2023).

B1: B2-17 (antibody, V domains shown)
VH: EVQLLDSGPRLLKPSETLSLTCGVSGVSTSSTHWWSWVRQTPGKGLEWIGEILHNGNTNSNPSLKSRVSMSIDKSRNQFSLQLKSMTAADTAVYYCASASPNWGASGAFDAWAQGTMVTVSS
VL: QSVLTQPPSASATPGQRVTISCSGSSSNIGSNPVNWYQQVPGMAPELVMYSDNQRPSGVPDRFSGSNSGTSASLAISGLQSEDEADYYCSTWDDSLNGLVFGTGTKVTVL
notes: also called B2-17_HC; B2-17_LC
B2: B2-19 (antibody, V domains shown)
VH: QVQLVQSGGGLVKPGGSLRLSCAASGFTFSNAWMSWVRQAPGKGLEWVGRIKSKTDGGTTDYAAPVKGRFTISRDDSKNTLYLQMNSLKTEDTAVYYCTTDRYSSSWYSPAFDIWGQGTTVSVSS
VL: QPVLTQPPSVSEAPRQRVTISCSGSSSNIGNNVVNWYQQLPGKAPKLLIYYDDLLPSGVSDRFSGSKSGTSASLAISGLQSEDEADYYCATWDDSLNGPVFGGGTKLTVL
notes: also called B2-19_HC; B2-19_LC
B3: B2-7 (antibody, V domains shown)
VH: EVQLVESGGGVVQPGRSLRLSCAASGFTISSYGMHWVRQAPGKGLEWVAVISYDGSNKYYADSVKGRFTISRDNSKNTLYLQMNSLRVEDTAVYYCAKDLLLRYFDWSPKYYYNGMDVWGQGTMVTVSS
VL: QSVLTQPPSVSVAPGKTARITCGGNNIGSKSVHWYQQKPGQAPVLVVYDDSDRPSGIPERFSGSNSGNTATLTISRVEAGDEADYYCQVWDSSSDHPGVFGTGTKVTVL
notes: also called B2-7_HC; B2-7_LC
B4: B2-16 (antibody, V domains shown)
VH: QVQLVQSGAEVKKPGSSVKVSCKASGGTFSSYAISWVRQAPGQGLEWMGGIIPIFGTANYAQKFQGRVTITADESTSTAYMELSSLRSEDTAVYYCASGIIPDNPYGMDVWGQGTMVSVSS
VL: DIVMTQSPLSLPVTLGQPASISCTSSQSLVYSDGNTYLNWFHQRPGQSPRRLFYKVSNRASGVPDRFSGSGSGTDFTLKISRVEAEDLGVYYCMQGTHWPVTFGQGTRLEIK
notes: also called B2-16_HC; B2-16_LC
B5: B2-15 (antibody, V domains shown)
VH: EVQLVQSGAEVKKSGASVKVSCKSSGYTFTNYGISWVRQAPGQGLEWMGWISGDAGDTKFAQKFQGRVTMTTDTSTTTTYMELRSLRSDDTAVYYCARDGEYIPMFRGFDNYYGLDVWGQGTLVSVSS
VL: QSVLTQPPSASATPGQRVTISCSGRNANIGSNPVNWYQQLPGTAPRLVMYSNNQRPSGVPDRFSGSKSGTSASLAISGLQSEDEADYYCEGWDDSLNGYVFGTGTKVTVL
notes: also called B-15; B2-15_HC

Experiments:
[1] = target: T1, LILRB2 chimeric receptor on LILRB2 reporter cells (extracellular domain of LILRB2 fused with … (UniProt Q8N423 22-460)); experiment: flow cytometry on LILRB2 reporter cells, APC anti-human IgG
T1 construct: extracellular domain;domain: transmembrane/intracellular domains; associates with DAP12; also called LILRB2-expressing reporter cells
Excerpt: FIGS. 1A-C. Screening specific monoclonal antibodies for LILRB2. […] Binding of monoclonal antibodies was screened using flow cytometer on LILRB2 reporter cells. Bound antibodies were detected with Allophycocyanin (APC)-labeled goat anti-human IgG secondary antibody. (FIG. 1B) Quantification of binding ability of monoclonal antibodies to LILRB2 reporter cells.
Screening specific monoclonal antibodies for LILRB2. The inventors employed a stable reporter cell system to detect the binding ability of selected monoclonal antibodies to LILRB2. In this chimeric receptor reporter system, the extracellular domain (ECD) of LILRB2 is fused with transmembrane/intracellular domains of PILRb that associates with the adaptor protein DAP12 containing an immunoreceptor tyrosine-based activation motif. 27 monoclonal antibodies were screened. The LILRB2 reporter cells were incubated with selected monoclonal antibody, then labeled with (APC) goat anti-human IgG secondary antibody. […] The inventors generated LILRBAs and LILRBs reporters stably transduced with each receptor's extracellular domain (ECD).

[2] = target: T2, endogenous LILRB2 on human myeloid cells / primary monocytes (human, UniProt Q8N423 22-597); experiment: flow cytometry, CD14+CD16- monocytes, AF647-conjugated antibody
T2 construct: whole, on cells; also called cells expressing endogenous LILRB2
Procedure: FIG. 32. Binding of LILRB2 antibodies on CD14⁺CD16-monocytes isolated from human PBMC from healthy donors. Fifty thousand cells were incubated for 30 minutes at 4° C. with a dilution series (40-0.0006 μg/mL) of LILRB2 antibodies directly conjugated to AF647 in a final volume of 100 μL. Data shown is averaged geometric mean of fluorescence intensity from duplicate samples acquired in a flow cytometer (BD FACS Celesta) from one donor and is representative of 2 experiments with cells isolated from different donors.

[3] = target: T3, LILRB2 (antigen in solution, Octet RED 96) (UniProt Q8N423 22-460, limits assumed); experiment: BLI (Octet RED 96), antibody on protein A biosensor, LILRB2 in solution
T3 construct: also called LILRB2 solution
Procedure: Affinity measurement of blocking antibodies. Affinities of the 5 blocking antibodies were measured on Octet RED 96 system.

[4] = target: T4, full length human LILRB2 stably expressed on HEK293 cells (human, UniProt Q8N423 22-597); experiment: competition flow cytometry, inhibition of SEMA4A-hFc-AF647 binding to HEK293_LILRB2 cells
T4 construct: whole, on cells; also called HEK293_LILRB2
Procedure: FIG. 34. […] Incubation was performed for 30 minutes at 4° C. Data shown is averaged geometric mean of fluorescence intensity ± standard error of the mean (s.e.m.) from duplicate samples acquired in a flow cytometer (BD FACS Celesta).

[5] = target: T4, full length human LILRB2 stably …; experiment: competition flow cytometry, inhibition of HLA-G-His binding to HEK293 cells expressing LILRB2
Procedure: FIG. 33. […] All incubations were performed for 30 minutes at 4° C. Data shown is averaged geometric mean of fluorescence intensity ± standard error of the mean (s.e.m.) from duplicate samples acquired in a flow cytometer (BD FACS Celesta).

Row | percent of LILRB2 reporter cells labeled [1] [%] | EC50 [2] [µg/mL] | Kd [3] [nM] | koff [3] [s⁻¹] | kon [3] [M⁻¹ s⁻¹] | IC50 [4] [µg/mL] | IC50 [5] [µg/mL] | Binder
1 | > 95 | > 10 | 35.9 | 0.0121 | 338000 | 0.657 | 0.209 | B1
2 | > 95 | 0.219 | 1.84 | 0.00046 | 250000 | 2.12 | 0.583 | B2
3 | > 95 | 0.332 | 15.2 | 0.00305 | 200000 | 2.66 | 0.507 | B3
4 | > 95 | 0.547 | 7.45 | 0.0009 | 121000 | 3.19 | 0.915 | B4
5 | > 95 | 0.056 | 18.9 | 0.00565 | 299000 | 0.482 | 0.16 | B5
